# In patent US20260226126A1 (ANWITA BIOSCIENCES, published 2026):
# Residue numbers refer to the chain shown, from its start. Names may count otherwise.
# T1: CD122 (human, UniProt P14784 27-239)
# T1 construct: also called IL-2Rβ; hIL-2 receptor
# T1 sequence: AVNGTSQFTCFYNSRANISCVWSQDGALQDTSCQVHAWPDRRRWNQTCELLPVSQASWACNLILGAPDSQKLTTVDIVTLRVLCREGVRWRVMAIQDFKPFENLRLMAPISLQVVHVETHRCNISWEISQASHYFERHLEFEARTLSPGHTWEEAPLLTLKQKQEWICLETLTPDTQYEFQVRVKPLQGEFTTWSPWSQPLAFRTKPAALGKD
# T2: AVITAG CD122/CD132 heterodimer (human, UniProt P14784 27-239; P31785 23-262)
# T2 construct: also called IL-2Rβ/γ
# T2 sequence 1: T1 sequence
# T2 sequence 2: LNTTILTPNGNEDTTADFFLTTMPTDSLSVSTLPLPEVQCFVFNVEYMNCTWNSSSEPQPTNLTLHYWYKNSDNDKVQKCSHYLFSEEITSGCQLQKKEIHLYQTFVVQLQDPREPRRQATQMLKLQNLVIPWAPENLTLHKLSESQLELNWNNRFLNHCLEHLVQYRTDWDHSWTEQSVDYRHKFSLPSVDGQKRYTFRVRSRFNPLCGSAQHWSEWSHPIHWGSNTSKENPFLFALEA
# T3: His-tagged IL-2Rα (CD25) protein (human, UniProt P01589 22-240)
# T3 construct: also called Human IL-2Rα
# T3 sequence: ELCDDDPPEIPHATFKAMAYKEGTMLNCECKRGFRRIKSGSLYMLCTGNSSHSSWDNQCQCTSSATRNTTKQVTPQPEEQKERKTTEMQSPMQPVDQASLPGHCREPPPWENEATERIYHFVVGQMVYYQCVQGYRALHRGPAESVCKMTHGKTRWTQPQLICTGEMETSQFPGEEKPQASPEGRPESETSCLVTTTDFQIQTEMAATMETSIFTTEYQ
# T4: His-tagged & Twin Strep-tagged human IL-2Rβ & IL-2Rγ heterodimer protein (human, UniProt P14784 27-239; P31785 23-262)
# T4 construct: also called Human IL-2Rβγ; human IL-2Rβγ (His)
# T4 sequence 1: T1 sequence
# T4 sequence 2: T2 sequence 2
# B1: hIL-2 Mutein (T3A, F42A, Y45A, L72G, C125S) (ligand)
# chain: APASSSTKKTQLQLEHLLLDLQMILNGINNYKNPKLTRMLTAKFAMPKKATELKHLQCLEEELKPLEEVLNGAQSKNFHLRPRDLISNINVIVLELKGSETTFMCEYADETATIVEFLNRWITFSQSIISTLT
# notes: no fusion partner is stated
# B2: hIL-2 Mutein (T3A, R38E, F42A, K76E, C125S) (ligand)
# chain: B1 chain with R38E, A45Y, G72L, K76E
# notes: no fusion partner is stated
# B3: Anti-PD-1/IL-2 fusion protein A1 (Fc fusion)
# chain 1: QVQLLESGGGLVKPGGSLRLSCAASGRTYAMGWFRRAPGKESEFVAEIRWSSTFTDYADSVKGRFTISRDNAENSAYLQMNSLRAEDTAVYHCAAQTSQRGTLYDSYGQGTQVTVSSESKYGPPCPPCPAPEFLGGPSVFLFPPKPKDTLMISRTPEVTCVVVDVSQEDPEVQFNWYVDGVEVHNAKTKPREEQFNSTYRVVSVLTVLHQDWLNGKEYKCKVSNKGLPSSIEKTISKAKGQPREPQVCTLPPSQEEMTKNQVSLSCAVKGFYPSDIAVEWESNGQPENNYKTTPPVLDSDGSFFLVSRLTVDKSRWQEGNVFSCSVMHEALHNHYTQKSLSLSLGAGGGGSGGGGSGGGGSAPASSSTKKTQLQLEHLSLDLQMILNGIQSMEIDATTFKFYMPKKATELKHLQCLEEELKPLEEVLNLAQSKNFHLRPRDLISNINVIVLELKGSETTFMCEYADETATIVEFLNRWITFSESIISTLT
# chain 2: QVQLLESGGGLVKPGGSLRLSCAASGRTYAMGWFRRAPGKESEFVAEIRWSSTFTDYADSVKGRFTISRDNAENSAYLQMNSLRAEDTAVYHCAAQTSQRGTLYDSYGQGTQVTVSSESKYGPPCPPCPAPEFLGGPSVFLFPPKPKDTLMISRTPEVTCVVVDVSQEDPEVQFNWYVDGVEVHNAKTKPREEQFNSTYRVVSVLTVLHQDWLNGKEYKCKVSNKGLPSSIEKTISKAKGQPREPQVYTLPPCQEEMTKNQVSLWCLVKGFYPSDIAVEWESNGQPENNYKTTPPVLDSDGSFFLYSRLTVDKSRWQEGNVFSCSVMHEALHNHYTQKSLSLSLGK
# notes: The two chains form a knobs-into-holes heterodimer
# B4: IL-2-IL-15 Chimera 2 (T3A, C125S) (ligand)
# chain: APASSSTKKTQLQLEHLLLDLQMILNGIQSMEIDATTFKFYMPKKATELKHLQCLEEELKPLEEVLNLAQSKNFHLRPRDLISNINVIVLELKGSETTFMCEYADETATIVEFLNRWITFSQSIISTLT
# notes: hIL-2 with N29-L40 replaced by an IL-15 hinge fragment-containing peptide; no fusion partner is stated
# B5: IL-2-IL-15 Chimera 68 (T3A, C125S, Q126T, S130R) (ligand)
# chain: B4 chain with Q122T, S126R
# notes: no fusion partner is stated
# B6: IL-2-IL-15 Chimera 46 (T3A, C125S, Q126E) (ligand)
# chain: B4 chain with Q122E
# notes: no fusion partner is stated
# B7: IL-2-IL-15 Chimera 58 (T3A, L18C, Q126E) (ligand)
# chain: B4 chain with L18C, S121C, Q122E
# notes: no fusion partner is stated
# B8: IL-2-IL-15 Chimera 44 (T3A, L18C) (ligand)
# chain: B4 chain with L18C, S121C
# notes: no fusion partner is stated
# B9: IL-2-IL-15 Chimera 42 (E15K, N88A, C125S) (ligand)
# chain: B4 chain with A3T, E15K, N84A
# notes: no fusion partner is stated
# B10: IL-2-IL-15 Chimera 69 (T3A, L18S, C125S, Q126E) (ligand)
# chain: B4 chain with L18S, Q122E
# notes: no fusion partner is stated
# B11: IL-2-IL-15 Chimera 64 (T3A, L18C, Q126S) (ligand)
# chain: B4 chain with L18C, S121C, Q122S
# notes: no fusion partner is stated
# B12: IL-2-IL-15 Chimera 29 (I92A, C125S) (ligand)
# chain: B4 chain with A3T, I88A
# notes: no fusion partner is stated
# B13: IL-2-IL-15 Chimera 54 (T3A, C125S, Q126T) (ligand)
# chain: B4 chain with Q122T
# notes: no fusion partner is stated
# B14: IL-2-IL-15 Chimera 56 (T3A, C125S, S130R) (ligand)
# chain: B4 chain with S126R
# notes: no fusion partner is stated
# Legend:
# CD122 = target: T1, CD122; assay: BLI (OCTET RED96); receptor loaded on biosensor, IL-2 mutein in solution at 10 to 2,000 nM
# Protocol: (§1) CD122 and AVITAG CD122/CD132 heterodimer were purchased from ACROBIOSYSTEMS, Inc. The protein samples were diluted in the OCTET® kinetic buffer. […] The association and dissociation sensorgram was fitted by global or local fitting using the OCTET® Data Analysis HT software.
# [1] = target: T2, AVITAG CD122/CD132 heterodimer; assay: as above
# Protocol: as §1
# His-tagged human PD-1 = target: T5, His-tagged human PD-1 (human, UniProt Q15116 25-167, limits assumed); assay: BLI (OCTET RED96); fusion protein A1 captured on anti-human-Fc (AHC) biosensor, serially diluted His-tagged human PD-1 in solution
# T5 construct: also called His-tagged human PD-1 protein
# From the text: (§2) Anti-PD-1/IL-2 fusion protein A1 was made by co-expression of SEQ ID NOs: 160 and 161 in CHO cells. OCTET® RED96 was used to study the interaction between anti-PD-1/IL-2 fusion protein A1 and human PD-1 or IL-2 receptors. For the binding study of the human PD-1, anti-human-Fc (AHC) biosensors were used to capture anti-PD-1/IL-2 fusion protein A1. The coated biosensors were associated with serially diluted His-tagged human PD-1 protein at predetermined concentrations. For the binding study of human IL-2 receptors, anti-penta-HIS (HIS1K) biosensors were used to capture human IL-2Rα or human IL-2Rβγ (His) proteins. The coated biosensors were associated with serially diluted anti-PD-1/IL-2 fusion protein A1 at predetermined concentrations.
# [2] = target: T3, His-tagged IL-2Rα (CD25) protein; assay: BLI (OCTET RED96); His-tagged receptor captured on anti-penta-HIS (HIS1K) biosensor, serially diluted fusion protein A1 in solution
# From the text: as §2
# [3] = target: T4, His-tagged & Twin Strep-tagged human …; assay: BLI (OCTET RED96); His-tagged receptor heterodimer captured on anti-penta-HIS (HIS1K) biosensor, serially diluted fusion protein A1 in solution
# From the text: as §2
# T5 sequence (Q15116 25-167 limits assumed): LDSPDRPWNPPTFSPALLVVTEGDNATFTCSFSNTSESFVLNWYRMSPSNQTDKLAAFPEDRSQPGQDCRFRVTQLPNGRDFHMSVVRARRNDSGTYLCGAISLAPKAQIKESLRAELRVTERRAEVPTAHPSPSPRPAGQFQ
Kd (CD122) [nM],Kd [1] [nM],further results,Binder
550,6.8,,B1
,1,,B2
,,Kd (His-tagged human PD-1): 5 nM; binding result [2]: no binding; Kd [3]: 12 nM,B3
104,11,,B4
466,32,,B5
,219,,B6
188,229,,B7
,12,,B8
,53,,B9
,322,,B10
,382,,B11
,3.5,,B12
650,30,,B13
808,12,,B14
